Results: patent US20240245800A1, “HIGHLY SPECIFIC RABBIT SINGLE -DOMAIN ANTIBODIES FOR DRUG DELIVERY IN IMMUNOTHERAPY APPLICATIONS” (TECHNOPHAGE, INVESTIGAÇÃO E DESENVOLVIMENTO EM …, priority 2021, published 2024)
Entries after “also recorded” stand apart in the source; their conditions may differ.

Tests used:
CLBL-1 cells [1] = experiment: Flow cytometry binding of C5 VL sdAb to CLBL-1 cells; assay type: cell-based, canine; settings: 3 μM C5, 37° C., different timepoints
Experimental: (§1) FIG. 8. Binding and internalization characterization of C5 VL sdAb. C5 binding and internalization properties against CLBL-1 cells were evaluated by cytometry and immunofluorescence. A) For flow cytometry analysis, 1×10^6 of CLBL-1 cells were incubated with Live/Dead reagents for 30 minutes. Then, 3 μM of C5 were incubated with the cells for different timepoints at 37° C. After, cells were washed, fixed, permeabilized, and incubated for 30 min with anti-HA antibody, washed twice and incubated with anti-rat Alexa Fluor-488. […] B) By contrast, no binding of C5 was detected with Jurkat cells. C) To confirm the binding of C5 to the CLBL-1 verified by flow cytometry, we evaluated its distribution on the cells by immunofluorescence assay. […] Representative microphotographs with C5 (green) and DAPI stained-nuclei (blue) are shown.
To evaluate the binding of the VL C5 to the CLBL-1 cells, a FACS analysis was performed. […]
The C5 VL sdAb binding and cellular internalization properties towards CLBL-1 cells were studied by cytometry analysis and immunofluorescence. […] Live/dead reagent was used to exclude dead cells and the background noise was also evaluated in the control with the secondary antibody (data not shown). To better characterize the binding of the C5 to the CLBL-1 cells, we further evaluated the internalization of the C5 sdAb on the cells using an immunofluorescence assay. […]

Jurkat cells = experiment: WST-1 cell viability assay on Jurkat cells; assay type: cell-based, human; settings: 48 h treatment
Experimental: (§2) FIG. 11—Cytotoxic effects of C5-DAB-SN-38. To determine the effect of C5-DAB-SN-38 on CLBL-1 and Jurkat cells, a cell viability assay was performed using the WST-1 reagent. 6×10^4 cells were seeded and treated with increasing amounts of compound. After 48 h treatment, cell viability was assessed. […] B) On the other hand, ADC had no effect on Jurkat cells, proving the specificity of the ADC. C5 was used as control. Best-fit EC50 values of each formulation were calculated using GraphPad Prism software (version 9.2.0, San Diego, CA, USA) using the log (inhibitor) vs response (variable slope) function. D) Effects of C5-DAB-SN-38 on DNA TopoI activity. To evaluate the effects of C5-DAB-SN-38 on DNA Topo I, we evaluated its activity using the Human Topoisomerase I Assay Kit. […]
(§3) To determine the effect of VL-DAB-SN-38 in CLBL-1 and Jurkat cell proliferation, a cell viability assay was performed using the Cell Proliferation Reagent WST-1 (Roche, Basel, Switzerland). […] After 48 h treatment, cell viability was assessed using WST-1, following the manufacturer's instructions. Absorbance at 450 nm was measured using the iMark microplate Reader (Bio-Rad). […] Best-fit EC50 values of each formulation were calculated using GraphPad Prism software (version 8.0, San Diego, CA, USA) using the log (inhibitor)) vs response (variable slope) function.

CLBL-1 cells [2] = experiment: Immunofluorescence binding/internalization of C5 in CLBL-1 cells; assay type: cell-based, canine; settings: 5 μM, 90 minutes at 37° C.
Experimental: as §1
1.5×10^5 of CLBL-1 cells were plated on ibidi μ-Slide 8 Well Glass Bottom (#80827, Ibidi, Germany) and incubated for 24 h at 37° C. in a humidified atmosphere of 5% CO2. Then, 5 μM of VL was added to the cells and incubated for 90 minutes at 37° C. […] In the Airyscan acquisition mode, ×1.80 zoom images were recorded at 1024×1024 resolution. […]

CLBL-1 cells [3] = experiment: WST-1 cell viability assay on CLBL-1 cells; assay type: cell-based, canine; settings: 48 h treatment
Experimental: as §2, §3

CLBL-1 xenograft tumours = settings: mouse, in vivo
Experimental: C5 was radiolabelled with ^99mTc(CO)3(H2O)3 and intravenously injected in the tail vein of a xenograft mice model of cNHL. Mice were sacrificed at 15 min and 3 h and the radioactivity of each organ was measured. The activity in each organ was calculated and expressed as a percentage of injected radioactivity dose per gram of organ or tissue (% ID/g).
Radiochemical purity (RP) was checked by Reversed-phase high-performance liquid chromatography (RP-HPLC) and instant thin-layer chromatography silica gel (ITLC-SG, Agilent Technologies, USA). […] Radioactivity distribution on the ITLC-SG strip was evaluated using a miniGita Star scanning device (Elysia-Raytest, (Germany) coupled with a Gamma BGO-V-Detector (Elysia Raytest). For purification and concentration of the ^99mTc-labeled sdAb, a 3 K Amicon (Merck Milipore) was used. ^99mTc(CO)3—C5 diluted in PBS was used for the biodistribution studies after RP determination by ITLC-SG. For that, mice were intravenously injected in the tail vein with 100 μl of ^99mTc(CO)3—C5 and sacrificed by cervical dislocation at 15 min, and 3 h after injection. Radioactivity was measured using a dose calibrator (Carpintec CRC-15W). After the removal of the tumour and tissues of interest, their radioactivity was measured using a γ-counter (Berthold, Germany). […]

B1: C5: rabbit derived anti-cNHL VL sdAb clone, SEQ. ID. 3; ^99mTc radiolabelled for biodistribution (antibody, listed as Oryctolagus cuniculus, V domains shown)
VL: ELDLTQTPSPVSASVGGTATINCQASQSVYNNYWWAWYQQRPGHPPKLLIYETSKLASGVPSRFKGSGSGTQFTLTIIDVQCDDAATYVCAGGYGTVIDNAFGGGTELEIL
modifications: 99mTc(CO)3 radiolabel
notes: ID; ^99mTc radiolabelled for biodistribution
- binding to CLBL-1 cells (flow cytometry) (CLBL-1 cells [1]): specifically binds; also recorded: demonstrated to bind
- binding to CLBL-1 cells (flow cytometry) (CLBL-1 cells [1]; listed as VL C5): shown to bind to the cells, increasing its interaction with time
- effect on Jurkat cell viability/proliferation (Jurkat cells): does not affect cell proliferation
- distribution/internalization in CLBL-1 cells (immunofluorescence) (CLBL-1 cells [2]): internalization into the cytoplasm; also recorded: high density of Alexa Fluor-488 labelled C5 labelled in the perinuclear region
- distribution/internalization in CLBL-1 cells (immunofluorescence) (CLBL-1 cells [2]; listed as VL C5): internalization into the cytoplasm
- effect on CLBL-1 (cNHL) cell viability/proliferation (CLBL-1 cells [3]): does not affect cell proliferation
- elimination from blood and major organs (CLBL-1 xenograft tumours): fast elimination
